From US8329195B2, “Detoxified pneumococcal neuraminidase and uses thereof” (priority 2007, dated 2012)
Substitutions are numbered along the chain they refer to. Like-named read-outs stand apart in the source and are kept apart here.

B1: NanA571: recombinant 571-amino-acid central fragment of TIGR4 NanA, corresponding to residues 230-800 of R6 NanA; His-tagged form SEQ ID NO:18 (protein, listed as Streptococcus pneumoniae)
chain: PTAELPKGRVRLYVNGVLSRTSLRSGNFIKDMPDVTHVQIGATKRANNTVWGSNLQIRNLTVYNRALTPEEVQKRSQLFKRSDLEKKLPEGAALTEKTDIFESGRNGNPNKDGIKSYRIPALLKTDKGTLIAGADERRLHSSDWGDIGMVIRRSEDNGKTWGDRVTITNLRDNPKASDPSIGSPVNIDMVLVQDPETKRIFSIYDMFPEGKGIFGMSSQKEEAYKKIDGKTYQILYREGEKGAYTIRENGTVYTPDGKATDYRVVVDPVKPAYSDKGDLYKGDQLLGNIYFTTNKTSPFRIAKDSYLWMSYSDDDGKTWSAPQDITPMVKADWMKFLGVGPGTGIVLRNGPHKGRILIPVYTTNNVSHLDGSQSSRVIYSDDHGKTWHAGEAVNDNRQVDGQKIHSSTMNNRRAQNTESTVVQLNNGDVKLFMRGLTGDLQVATSKDGGVTWEKDIKRYPQVKDVYVQMSAIHTMHEGKEYIILSNAGGPKRENGMVHLARVEENGELTWLKHNPIQKGEFAYNSLQELGNGEYGILYEHTEKGQNAYTLSFRKFNWEFLSKNLISPTEAN
B2: NanA571_Y752F: NanA571 with tyrosine Y752 converted to phenylalanine (protein)
chain: B1 chain with Y523F
B3: NanA571_E647T: NanA571 with glutamate E647 converted to threonine (protein)
chain: B1 chain with E418T
B4: NanA186: recombinant near-N-terminal NanA fragment from TIGR4, residues 157-342; His-tagged form SEQ ID NO:22 (protein)
chain: EFKPDAKAPAFYNLFSVSSATKKDEYFTMAVYNNTATLEGRGSDGKQFYNNYNDAPLKVKPGQWNSVTFTVEKPTAELPKGRVRLYVNGVLSRTSLRSGNFIKDMPDVTHVQIGATKRANNTVWGSNLQIRNLTVYNRALTPEEVQKRSQLFKRSDLEKKLPEGAALTEKTDIFESGRNGNPNKDG
B5: NanA215: recombinant NanA fragment from TIGR4, residues 347-561, covers 2 of 4 Asp boxes; His-tagged form SEQ ID NO:20 (protein)
chain: RIPALLKTDKGTLIAGADERRLHSSDWGDIGMVIRRSEDNGKTWGDRVTITNLRDNPKASDPSIGSPVNIDMVLVQDPETKRIFSIYDMFPEGKGIFGMSSQKEEAYKKIDGKTYQILYREGEKGAYTIRENGTVYTPDGKATDYRVVVDPVKPAYSDKGDLYKGDQLLGNIYFTTNKTSPFRIAKDSYLWMSYSDDDGKTWSAPQDITPMVKAD
B6: NanB: another S. pneumoniae neuraminidase, 43% homology with NanA (protein, UniProt Q54727 30-697, looked up)
Sialidase B: NELNYGQLSISPIFQGGSYQLNNKSIDISSLLLDKLSGESQTVVMKFKADKPNSLQALFGLSNSKAGFKNNYFSIFMRDSGEIGVEIRDAQKGINYLFSRPASLWGKHKGQAVENTLVFVSDSKDKTYTMYVNGIEVFSETVDTFLPISNINGIDKATLGAVNREGKEHYLAKGSIDEISLFNKAISDQEVSTIPLSNPFQLIFQSGDSTQANYFRIPTLYTLSSGRVLSSIDARYGGTHDSKSKINIATSYSDDNGKTWSEPIFAMKFNDYEEQLVYWPRDNKLKNSQISGSASFIDSSIVEDKKSGKTILLADVMPAGIGNNNANKADSGFKEINGHYYLKLKKNGDNDFRYTVRENGVVYNETTNKPTNYTINDKYEVLEGGKSLTVEQYSVDFDSGSLRERHNGKQVPMNVFYKDSLFKVTPTNYIAMTTSQNRGESWEQFKLLPPFLGEKHNGTYLCPGQGLALKSSNRLIFATYTSGELTYLISDDSGQTWKKSSASIPFKNATAEAQMVELRDGVIRTFFRTTTGKIAYMTSRDSGETWSKVSYIDGIQQTSYGTQVSAIKYSQLIDGKEAVILSTPNSRSGRKGGQLVVGLVNKEDDSIDWKYHYDIDLPSYGYAYSAITELPNHHIGVLFEKYDSWSRNELHLSNVVQYIDLEINDLTK

What was measured:
[1] = Sialidase (neuraminidase) activity of recombinant NanA fragments; format: biochemical
Method: The decreased activity of a detoxified neuraminidase or a neuraminidase fragment as compared to non-detoxified neuraminidase can be measured by the assay of Lock, et al. (Microb. Pathog. 4; 33-43, 1988). Using the Lock assay, NanA activity in lysates, serum, or blood can be measured using 2′-(4-methyl-umbelliferyl)-α-D-N-acetylyneuraminic acid as the substrate in a enzyme assay (Lock et al. 1988). Ten microliters of substrate are combined with 10 μL of serum and incubated for 5 minutes at 37° C. The reaction is stopped using 0.5 M sodium carbonate. Neuraminidase activity is measured in terms of the amount of 4-methylumbelliferone (MU) released per minute. MU has an excitation wavelength of 366 nm and an emission wavelength of 445 nm. […] Thus, the detoxified neuraminidase or fragment thereof can have no measurable enzymatic activity as compared to the enzymatic activity of a non-detoxified neuraminidase. Further, the detoxified neuraminidase can have protective antibody eliciting activity similar to the non-detoxified neuraminidase.
Such an assay is described in Berry et al., J. Bacterial 1784854-4860 (1996).

[2] = system: TIGR4 Streptococcus pneumoniae; format: in vivo; details: for protection against nasal carriage / colonization (nasal wash and nasal tissue) / protection from pneumococci reaching (invasion into) the lungs, olfactory bulb, or brain: CBA/N mice, 50 μg intranasal with CTB, TIGR4 challenge, day 7
[3] = MUAN assay of neuraminidase activity; format: biochemical; details: MUAN assay at 37° C. at pH 7.0
Excerpt: The total abolishment of activity is consistent with the proposed activities as based on the alignment with structures previously known.

[4] = NanB at its optimal pH; cited from earlier work

Molecule	sialidase activity of the recombinant protein [1]	protection against nasal carriage / colonization (nasal wash and nasal tissue) [2]	neuraminidase activity [3]	protection from pneumococci reaching (invasion into) the lungs, olfactory bulb, or brain [2]	other results
B1	active	solid protection	3.9 µmol/min/mg		sialidase activity of the recombinant protein ([1]; listed as rNanA571): enzymatically active; protection against nasal carriage / colonization (nasal wash and nasal tissue) ([2]; listed as rNanA571): elicited protection; in vivo protection to S. pneumoniae challenge ([2]; figure legend FIG. 11): elicited in vivo protection
B2			Neither mutation exhibited any detectable neuraminidase activity		
B3			Neither mutation exhibited any detectable neuraminidase activity		
B4	no sialidase activity	no observed statistically significant protection		did not elicit protection	
B5	no sialidase activity	no observed statistically significant protection		did not elicit protection	
B6					sialidase activity relative to NanA at its pH optimum [4]: about 1/100
